# Laboratory results from patent publication US20150284450A1, “COMBINATION THERAPIES USING ANTI-PSEUDOMONAS PSL AND PCRV BINDING MOLECULES” (priority 2012, published 2015).
# B1: V2L2: anti-PcrV monoclonal antibody, epitope class 4; VH SEQ ID NO: 216, VL SEQ ID NO: 217 (antibody, V domains shown)
# VH: EMQLLESGGGLVQPGGSLRLSCAASGFTFSSYAMNWVRQAPGEGLEWVSAITISGITAYYTDSVKGRFTISRDNSKNTLYLQMNSLRAGDTAVYYCAKEEFLPGTHYYYGMDVWGQGTTVTVSS
# VL: AIQMTQSPSSLSASVGDRVTITCRASQGIRNDLGWYQQKPGKAPKLVIYSASTLQSGVPSRFSGSGSGTDFTLSISSLQPDDFATYYCLQDYNYPWTFGQGTKVEIK
# modifications: V2L2 VH; V2L2 VL
# Key:
# [1] = system: P. aeruginosa 6077 (exoU+); assay: Rabbit red blood cell lysis inhibition assay with strain 6077; type: cell-based, Pseudomonas aeruginosa; conditions: FIG. 12F
# Protocol: Percent inhibition of cytotoxicity analysis was analysed for the parental V2L2 mAb, mAb166 (positive control) and R347 (negative control), where the antibodies were administered to cultured broncho-epithelial cell line A549 combined with log-phase P. aeruginosa strain 6077 (exoU+) at a MOI of approximately 10. A549 lysis was assayed by measuring released lactate dehydrogenase (LDH) activity and lysis in the presence of mAbs was compared to wells without mAb to determine percent inhibition. The V2L2 mAb, mAb166 (positive control) and R347 (negative control) were evaluated for their ability to prevent lysis of RBCs, where the antibodies were mixed with log-phase P. aeruginosa 6077 (exoU^+) and washed rabbit red blood cells (RBCs) and incubated for 2 hours at 37°. Intact RBCs were pelleted and the extent of lysis determined by measuring the OD405 of the cell-free supernatant. Lysis in the presence of anti-PcrV mAbs was compared to wells without mAb to determine percent inhibition.
# [2] = system: P. aeruginosa 6294 (O6); assay: Acute pneumonia model in mice, strain 6294; type: in vivo, Pseudomonas aeruginosa; conditions: for Overall Impression, lung histology: BALB/c mice
# Protocol: (§1) Antibodies or PBS were administered 24 hours before infection in each model. P. aeruginosa acute pneumonia, keratitis, and thermal injury infection models were performed as described (DiGiandomenico, A., et al., Proc Natl Acad Sci USA 104, 4624-4629 (2007)), with modifications. In the acute pneumonia model, BALB/c mice (The Jackson Laboratory) were infected with P. aeruginosa strains suspended in a 0.05 ml inoculum. In the thermal injury model, CF-1 mice (Charles River) received a 10% total body surface area burn with a metal brand heated to 92° C. for 10 seconds. Animals were infected subcutaneously with P. aeruginosa strain 6077 at the indicated dose. For organ burden experiments, acute pneumonia was induced in mice followed by harvesting of lungs, spleens, and kidneys 24 hours post-infection for determination of CFU.
# [3] = system: P. aeruginosa 6077 (O11, cytotoxic); assay: Acute pneumonia model in mice, strain 6077; type: in vivo, Pseudomonas aeruginosa; conditions: IP 24 h prior to intranasal 6077 (1×10^6 CFU/animal); FIG. 13E-G
# Protocol: as §1
# [4] = system: P. aeruginosa 6206 (O11-ExoU+); assay: Acute pneumonia model in mice, strain 6206; type: in vivo, Pseudomonas aeruginosa
# Protocol: as §1
# [5] = system: P. aeruginosa PA103A (O11); assay: Acute pneumonia model in mice, strain PA103A; type: in vivo, Pseudomonas aeruginosa; conditions: V2L2 0.04-5 mg/kg, FIG. 13I
# Protocol: as §1
# The in vivo effect of administration of an anti-PcrV antibodies was studied in mice using an acute pneumonia model. Groups of mice were treated with either increasing concentrations of the V2L2 antibody, a positive control anti-PcrV antibody (mAb166), or a negative control (R347), as shown in FIG. 13 (A-B). Groups of mice were also treated with either increasing concentrations of the V2L2 antibody, the PcrV antibody PcrV-02, or a negative control (R347), as shown in FIG. 13 (C-D). […]
# [6] = 1.33×10^7 CFU 6294, 0.2 mg/kg (combination 0.1 mg/kg ea), Table 6A
# [7] = 1.7×10^7 CFU 6294, 0.2 mg/kg (combination 0.1 mg/kg ea), Table 6B
# [8] = 5.25×10^5 cfu 6206, single antibody: R347 2.1 mg/kg, V2L2 0.1 mg/kg, WapR-004 0.5 mg/kg, Table 5
# [9] = 9.25×10^5 CFU 6206, 0.2 mg/kg (combination 0.1 mg/kg ea), Table 7
# [10] = V2L2 0.07-5 mg/kg, intranasal 6206, FIG. 14A-B
molecule,measurement,setting,value
B1,"potency in prevention of RBC lysis, V2L2 vs. 29D2",[1],more potent in prevention of RBC lysis than the 29D2
same,protection compared to mAb166 at similar doses,"[2]; 1 mg/kg, strain 6294, FIG. 13B",significantly more potent protection than mAb166
same,Bacteria,[2]; [6],Neg-1+
same,"Hemorrhage, extent in words",[2]; [6],Extensive
same,Inflammatory Infiltrate,[2]; [6],PMN 3+
same,Involved Lung Surface Area,[2]; [6],57%
same,Bacteria,[2]; [7],Neg
same,Inflammatory Infiltrate,[2]; [7],PMN 2+
same,Involved Lung Surface Area,"[2]; 1.7×10^7 CFU 6294, 0.2 mg/kg, Table 6B",30%
same,protection against additional strains,"[2]; 6294, V2L2 0.04-5 mg/kg, FIG. 13I",protects against additional Pseudomonas strains
same,"Overall Impression, lung histology",[2]; [6],Broncho interstitial pneumonia
same,"Overall Impression, lung histology",[2]; [7],Broncho interstitial pneumonia
same,effect on survival,"[2]; increasing doses of V2L2 24 h before infection, out to 168 hours post-infection, FIG. 13",dose-dependent effect on improved survival
same,protection in vivo (survival),[3],provides protection in vivo
same,reduction in organ CFU compared to mAb166 at similar doses,"[4]; 1 mg/kg, lung, FIG. 14B",significantly greater reduction in organ CFU than mAb166
same,"organ burden / tissue clearance (lung, spleen, kidney CFU)","[4]; 5.25×10^5 cfu 6206, V2L2 0.1 mg/kg, W4-RAD 0.5 mg/kg, combination, 24 h post infection, FIG. 15",effective in lowering organ burden
same,Inflammatory Infiltrate,[4]; [8],PMN 3+
same,Involved Lung Surface Area,[4]; [8],55%
same,"Overall Impression, lung histology",[4]; [8],Broncho interstitial pneumonia
same,Inflammatory Infiltrate,[4]; [9],PMN 2-3+
same,Involved Lung Surface Area,[4]; [9],40%
same,"survival, in words","[4]; 6206, Bs3-V2L2 0.28 mg/kg, V2L2 0.2 mg/kg 24 h before infection, monitored 120 hours, FIG. 21A","survived, along with those which received the V2L2 control"
same,"Overall Impression, lung histology","[4]; BALB/c mice, 9.25×10^5 CFU 6206, 0.2 mg/kg (combination 0.1 mg/kg ea), Table 7",Broncho interstitial pneumonia
same,clearance in the kidney,[4]; [10],little effect on clearance in the kidney
same,dissemination to lung and spleen,[4]; [10],greatly reduced dissemination to both the lung and spleen in a dose-dependent manner
same,protection against additional strains,[5],protects against additional Pseudomonas strains
